# Measurements: PMC5247666, “The Production and Utilization of GDP-glucose in the Biosynthesis of Trehalose 6-Phosphate by Streptomyces venezuelae*” (The Journal of Biological Chemistry, 2016)
# B1: Streptomyces venezuelae SVEN_3972 (ITP-mannose pyrophosphorylase) (enzyme, UniProt F2RFV6 1-238, looked up)
# chain: MHTSPTQAVVLAGGQGSRLRPYTDDRPKPMVEIPGTGTPIIGHQLSWLAAEGVTDAVVSCGHLAEVLQEWLEGADLPLKVTTVVETEPLGRGGGLKYAAAHLPAPDQPWYATNGDIWTRFSLREMAAFHDERDALATLALARPRIPWGAVETDTFGHITDFIEAPPSPFLINAGVYVFSAAFTELLPDLGDHERTTFPRLARERRLAGFPLPQGAYWRAIDTAKDLTEAAKELAAQRG
# notes: The His6 tag can be cleaved by TEV protease; also called SVEN15_3882
# B2: SVEN_2781 (Streptomyces venezuelae ATCC 10712) (protein)
# chain: MTEAILLVGGKGTRLRPLTVNTPKPMVPAAGVPFLTHQLARARAAGVEHIVLATSYLAEVFEPHFGDGSSLGLSLEYVTEEEPLGTGGAIRNVASRLHSGPDDPVLIFNGDILTGLDIQALVATHSSSGADVSLHLTRVEDPRAFGLVPTDATGRVTAFLEKPQTPEEIVTDQINAGAYVFRRSVIDTIPAGRPVSVERETFPDLLASGAHLQGMVDSTYWLDLGTPQAFVRGSADLVLGRAPSPAVPGRCGDRLVLPSARVAPDAKLTGGTVVGADAVVGDGARITGSTLLAGAVVEPGAVITDSLIGAGARIGARSVLTGAVIGDGAQVGPDNELRDGVRVWCDATLPAGAVRFSSDQ
# notes: synthetic gene, E. coli BL21(DE3); active form dimer
# B3: S. venezuelae OtsA (Streptomyces venezuelae ATCC 10712) (protein)
# chain: MASVLVASNRGPVSYVRGEDGELDARRGGGGLVSGLSAVSSQDSLWVCAALGEGDREAVRRGIGEPGVRMLDIAPDVYADAYNGIANSVLWFLHHHLYDIPREPVFDAAFRHRWEAYRAYNRAFAEALAAAADEGAAVLVQDYHLALVPGQLRELRPDLRIGHFTHTPWASPEYFRMLPADIGDELLRGMLGADELGFHTSAWASAFLSCAGGEQPRTRVRVHPLGVDAEELRALAHRPQVDERLARLREEVGDRKTIVRVDRTELSKNILRGLLAYRELLTVHPEWRDRVVHLASAYPSRQDLAAYRAYTASVTELAAEINAEFGTADWQPVLVSVEDDFTRSLAAYRLADVALVNPVRDGMNLVAKEIPVVSDAGCALVLSTGAGAYEELKEDALTVHPYDVSETAEALHTALTMPPPERADRTKRLASAATALPPQRWFLNQLEGLSDA
# notes: synthetic gene, E. coli SoluBL21; 51 kDa with tag; homodimer (109 kDa by SEC)
# Key:
# [1] = target: Streptomyces venezuelae OtsA (trehalose-6-phosphate synthase) (Streptomyces venezuelae); test: SEC; Superdex 200 10/300 GL calibrated with size standards; 20 mM HEPES pH 7.0, 10 mM MgCl2, 100 mM NaCl; size of the self-associated form
# SVEN_3027 = target: T1, SVEN_3027 (Streptomyces venezuelae, UniProt F2R7M8); test: stopped coupled assay of pyrophosphate (inorganic pyrophosphatase, malachite green); type: biochemical; conditions: glucose 1-phosphate as co-substrate
# T1 construct: synthetic gene, E. coli BL21(DE3)pLysS
# [2] = substrate: Nc1nc2c(ncn2[C@@H]2O[C@H](COP(=O)(O)OP(=O)(O)OP(=O)(O)O)[C@@H](O)[C@H]2O)c(=O)[nH]1; test: as above; type: biochemical, Streptomyces venezuelae; conditions: mannose 1-phosphate 2 mM fixed
# Excerpt: (§1) stopped coupled assay of pyrophosphate (inorganic pyrophosphatase, malachite green) on SVEN_3972
# [3] = substrate: O=P(O)(O)O[C@H]1O[C@H](CO)[C@@H](O)[C@H](O)[C@@H]1O; test: as above; type: biochemical, Streptomyces venezuelae; conditions: ITP 1 mM fixed
# Excerpt: as §1
# [4] = substrate: O=P(O)(O)OP(=O)(O)OP(=O)(O)OC[C@H]1O[C@@H](n2cnc3c(O)ncnc32)[C@H](O)[C@@H]1O; test: as above; type: biochemical, Streptomyces venezuelae; conditions: mannose 1-phosphate 2 mM fixed
# Excerpt: as §1
# [5] = substrate: O=P(O)(O)O[C@H]1O[C@H](CO)[C@@H](O)[C@H](O)[C@H]1O; test: as above; type: biochemical, Streptomyces venezuelae; conditions: GTP 2 mM fixed
# Excerpt: as §1
# [6] = target: the molecule itself; test: SEC; Superdex 200 16/600; 50 mM MOPS pH 8.0, 0.025 mM EDTA, 5% (w/v) sucrose; size of the self-associated form
# [7] = substrate: Nc1nc2c(ncn2[C@@H]2O[C@H](COP(=O)(O)OP(=O)(O)OP(=O)(O)O)[C@@H](O)[C@H]2O)c(=O)[nH]1; test: stopped coupled assay of pyrophosphate (inorganic pyrophosphatase, malachite green); type: biochemical, Streptomyces venezuelae; conditions: glucose 1-phosphate 1 mM fixed
# Excerpt: (§2) stopped coupled assay of pyrophosphate (inorganic pyrophosphatase, malachite green) on SVEN_2781
# [8] = substrate: O=P(O)(O)O[C@H]1O[C@H](CO)[C@@H](O)[C@H](O)[C@@H]1O; test: as above; type: biochemical, Streptomyces venezuelae; conditions: GTP 0.3 mM fixed
# Excerpt: as §2
# [9] = substrate: O=P(O)(O)O[C@H]1O[C@H](CO)[C@@H](O)[C@H](O)[C@H]1O; test: as above; type: biochemical, Streptomyces venezuelae; conditions: GTP 0.3 mM fixed
# Excerpt: as §2
# [10] = substrate: Nc1nc2c(ncn2[C@@H]2O[C@H](COP(=O)(O)OP(=O)(O)O[C@H]3O[C@H](CO)[C@@H](O)[C@H](O)[C@H]3O)[C@@H](O)[C@H]2O)c(=O)[nH]1; test: continuous coupled assay of NDP release (pyruvate kinase/lactate dehydrogenase); type: biochemical, Streptomyces venezuelae; conditions: glucose 6-phosphate 5 mM fixed
# Excerpt: (§3) continuous coupled assay of NDP release (pyruvate kinase/lactate dehydrogenase) on S. venezuelae OtsA
# [11] = substrate: Nc1ncnc2c1ncn2[C@@H]1O[C@H](COP(=O)(O)OP(=O)(O)O[C@H]2O[C@H](CO)[C@@H](O)[C@H](O)[C@H]2O)[C@@H](O)[C@H]1O; test: as above; type: biochemical, Streptomyces venezuelae; conditions: glucose 6-phosphate 5 mM fixed
# Excerpt: as §3
# T1 sequence (F2R7M8 entry or part of it): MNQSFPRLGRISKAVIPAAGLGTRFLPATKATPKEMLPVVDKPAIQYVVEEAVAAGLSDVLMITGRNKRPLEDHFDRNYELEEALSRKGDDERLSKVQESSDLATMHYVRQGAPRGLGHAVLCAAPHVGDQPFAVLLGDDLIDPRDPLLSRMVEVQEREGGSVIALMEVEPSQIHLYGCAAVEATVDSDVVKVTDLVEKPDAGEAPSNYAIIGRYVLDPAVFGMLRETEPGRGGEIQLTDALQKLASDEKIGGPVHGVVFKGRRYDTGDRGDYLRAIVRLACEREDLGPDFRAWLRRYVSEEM
molecule,measurement,setting,value
Streptomyces venezuelae OtsA (trehalose-6-phosphate synthase) (enzyme),stoichiometry N,[1],2
Cc1cn([C@H]2C[C@H](O)[C@@H](COP(=O)(O)OP(=O)(O)OP(=O)(O)O)O2)c(=O)[nH]c1=O [dTTP],"stopped coupled assay of pyrophosphate (inorganic pyrophosphatase, malachite gre)",SVEN_3027,donor substrate preference was UTP > dTTP ≫ CTP > GTP > ATP > ITP
O=c1ccn([C@@H]2O[C@H](COP(=O)(O)OP(=O)(O)OP(=O)(O)O)[C@@H](O)[C@H]2O)c(=O)[nH]1 [UTP],"stopped coupled assay of pyrophosphate (inorganic pyrophosphatase, malachite gre)",SVEN_3027,donor substrate preference was UTP > dTTP ≫ CTP > GTP > ATP > ITP
B1,Km,[2],470 ± 30 µM
same,kcat,[2],0.0156 ± 0.0004 s⁻¹
same,kcat/Km,[2],33 ± 2 M⁻¹ s⁻¹
same,Km,[3],860 ± 80 µM
same,kcat,[3],0.0119 ± 0.0004 s⁻¹
same,kcat/Km,[3],14 ± 1 M⁻¹ s⁻¹
same,Km,[4],170 ± 20 µM
same,kcat,[4],0.049 ± 0.001 s⁻¹
same,kcat/Km,[4],300 ± 30 M⁻¹ s⁻¹
same,Km,[5],7100 ± 800 µM
same,kcat,[5],0.014 ± 0.001 s⁻¹
same,kcat/Km,[5],2 ± 0.3 M⁻¹ s⁻¹
same,stoichiometry N,[6],2
B2,Km,[7],260 ± 20 µM
same,kcat,[7],0.159 ± 0.002 s⁻¹
same,kcat/Km,[7],610 ± 40 M⁻¹ s⁻¹
same,Km,[8],2700 ± 300 µM
same,kcat,[8],0.167 ± 0.008 s⁻¹
same,kcat/Km,[8],60 ± 10 M⁻¹ s⁻¹
same,Km,[9],1400 ± 100 µM
same,kcat,[9],0.171 ± 0.004 s⁻¹
same,kcat/Km,[9],120 ± 10 M⁻¹ s⁻¹
B3,Km,[10],120 ± 20 µM
same,kcat,[10],139 ± 8 s⁻¹
same,kcat/Km,[10],1.14e+06 ± 223000 M⁻¹ s⁻¹
same,Km,[11],440 ± 50 µM
same,kcat,[11],29 ± 1 s⁻¹
same,kcat/Km,[11],67000 ± 7000 M⁻¹ s⁻¹
